Assay results reported in patent US20140087995A1 (published 2014).
Numbered stars: 1 amine (or outer) side, 2 acyl side, 3 side chain; on linkers, the order of the positions; unused ones are H or OH. Bridge positions count the residues as written; N and C are the ends. Side chains are listed from the residue outwards. Ends that are not written are not given here. * marks the point of attachment. C20 diacid = O=C(O)CCCCCCCCCCCCCCCCCCC(=O)*; γGlu = O=C(O)[C@H](CCC(=O)[*:2])N[*:1]; AEEA = NCCOCCOCC(=O)O

T1: rat calcitonin receptor (rat, UniProt P32214 25-516)
T1 construct: whole, on cells; Membranes prepared from transiently transfected BHK tk'ts 13 cells (Assay VIII); also called rCTR; rCT
T1 sequence (looked up): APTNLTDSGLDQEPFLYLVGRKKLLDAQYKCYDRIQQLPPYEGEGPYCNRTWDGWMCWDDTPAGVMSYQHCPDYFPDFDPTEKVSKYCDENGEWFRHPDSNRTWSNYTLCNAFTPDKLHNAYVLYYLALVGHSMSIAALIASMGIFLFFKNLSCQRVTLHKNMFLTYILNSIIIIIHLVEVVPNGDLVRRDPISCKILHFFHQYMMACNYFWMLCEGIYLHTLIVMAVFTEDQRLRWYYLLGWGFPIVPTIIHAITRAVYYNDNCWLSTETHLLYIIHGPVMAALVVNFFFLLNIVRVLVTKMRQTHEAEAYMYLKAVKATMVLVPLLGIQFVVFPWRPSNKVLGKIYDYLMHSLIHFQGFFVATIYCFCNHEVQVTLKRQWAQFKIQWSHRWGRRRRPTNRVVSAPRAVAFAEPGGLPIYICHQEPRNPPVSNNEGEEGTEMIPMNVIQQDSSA

T2: human calcitonin receptor (human, UniProt P30988 25-474)
T2 construct: whole, on cells; Membranes prepared from a stably transfected BHK cell line (Assay VII); also called hCTR; hCT
T2 sequence (looked up): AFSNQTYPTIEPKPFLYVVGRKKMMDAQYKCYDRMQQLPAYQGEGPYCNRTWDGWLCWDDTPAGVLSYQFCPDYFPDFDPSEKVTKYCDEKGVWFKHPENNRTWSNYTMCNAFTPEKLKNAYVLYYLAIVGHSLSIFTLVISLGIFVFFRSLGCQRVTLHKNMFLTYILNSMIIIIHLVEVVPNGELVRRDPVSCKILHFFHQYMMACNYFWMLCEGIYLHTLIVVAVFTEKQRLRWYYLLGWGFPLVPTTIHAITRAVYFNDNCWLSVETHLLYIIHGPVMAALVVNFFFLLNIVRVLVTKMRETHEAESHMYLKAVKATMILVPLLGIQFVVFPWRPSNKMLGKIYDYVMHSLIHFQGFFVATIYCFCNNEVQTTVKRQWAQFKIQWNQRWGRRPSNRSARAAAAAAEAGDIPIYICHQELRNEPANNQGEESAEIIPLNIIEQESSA

T3: rat amylin receptor (rat calcitonin receptor + rat RAMP 3) (rat, UniProt P32214 25-516; Q9JJ73 23-147)
T3 construct: whole, on cells; Membranes prepared from transiently transfected BHK tk'ts 13 cells (Assay VI); also called rAmylin-R; rAmylin
T3 sequence (looked up) 1: T1 sequence (looked up)
T3 sequence (looked up) 2: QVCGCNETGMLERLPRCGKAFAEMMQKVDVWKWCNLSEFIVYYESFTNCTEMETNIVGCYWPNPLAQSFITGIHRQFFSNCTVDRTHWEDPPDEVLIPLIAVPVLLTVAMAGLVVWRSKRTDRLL

B1: N^ε1-[2-[2-[2-[[(4S)-4-carboxy-4-(19-carboxynonadecanoylamino)butanoyl]amino]ethoxy]ethoxy]acetyl]-[Ser14,Arg17,Pro21,Pro27,Pro31]-h-amylin (peptide)
peptide: K([AEEA-γGlu-C20 diacid])CNTATCATQRLASFLRHSSPNFGAIPSSTPVGSNTY-NH2
modifications: disulfide 2-7; N-terminus assumed
SMILES: CC[C@H](C)[C@H](NC(=O)[C@H](C)NC(=O)CNC(=O)[C@H](Cc1ccccc1)NC(=O)[C@H](CC(N)=O)NC(=O)[C@@H]1CCCN1C(=O)[C@H](CO)NC(=O)[C@H](CO)NC(=O)[C@H](Cc1c[nH]cn1)NC(=O)[C@H](CCCNC(=N)N)NC(=O)[C@H](CC(C)C)NC(=O)[C@H](Cc1ccccc1)NC(=O)[C@H](CO)NC(=O)[C@H](C)NC(=O)[C@H](CC(C)C)NC(=O)[C@H](CCCNC(=N)N)NC(=O)[C@H](CCC(N)=O)NC(=O)[C@@H](NC(=O)[C@H](C)NC(=O)[C@@H]1CSSC[C@H](NC(=O)[C@@H](N)CCCCNC(=O)COCCOCCNC(=O)CC[C@H](NC(=O)CCCCCCCCCCCCCCCCCCC(=O)O)C(=O)O)C(=O)N[C@@H](CC(N)=O)C(=O)N[C@@H]([C@@H](C)O)C(=O)N[C@@H](C)C(=O)N[C@@H]([C@@H](C)O)C(=O)N1)[C@@H](C)O)C(=O)N1CCC[C@H]1C(=O)N[C@@H](CO)C(=O)N[C@@H](CO)C(=O)N[C@H](C(=O)N1CCC[C@H]1C(=O)N[C@H](C(=O)NCC(=O)N[C@@H](CO)C(=O)N[C@@H](CC(N)=O)C(=O)N[C@H](C(=O)N[C@@H](Cc1ccc(O)cc1)C(N)=O)[C@@H](C)O)C(C)C)[C@@H](C)O
notes: Analogue of human amylin; also called compound 73
B2: N^ε1-[(4S)-4-carboxy-4-(19-carboxynonadecanoylamino)butanoyl]-[Arg14,Arg17,Pro21,Pro27,Pro34]-h-amylin (peptide)
peptide: K([γGlu-C20 diacid])CNTATCATQRLARFLRHSSPNFGAIPSSTNVGPNTY-NH2
modifications: disulfide 2-7; N-terminus assumed
SMILES: CC[C@H](C)[C@H](NC(=O)[C@H](C)NC(=O)CNC(=O)[C@H](Cc1ccccc1)NC(=O)[C@H](CC(N)=O)NC(=O)[C@@H]1CCCN1C(=O)[C@H](CO)NC(=O)[C@H](CO)NC(=O)[C@H](Cc1c[nH]cn1)NC(=O)[C@H](CCCNC(=N)N)NC(=O)[C@H](CC(C)C)NC(=O)[C@H](Cc1ccccc1)NC(=O)[C@H](CCCNC(=N)N)NC(=O)[C@H](C)NC(=O)[C@H](CC(C)C)NC(=O)[C@H](CCCNC(=N)N)NC(=O)[C@H](CCC(N)=O)NC(=O)[C@@H](NC(=O)[C@H](C)NC(=O)[C@@H]1CSSC[C@H](NC(=O)[C@@H](N)CCCCNC(=O)CC[C@H](NC(=O)CCCCCCCCCCCCCCCCCCC(=O)O)C(=O)O)C(=O)N[C@@H](CC(N)=O)C(=O)N[C@@H]([C@@H](C)O)C(=O)N[C@@H](C)C(=O)N[C@@H]([C@@H](C)O)C(=O)N1)[C@@H](C)O)C(=O)N1CCC[C@H]1C(=O)N[C@@H](CO)C(=O)N[C@@H](CO)C(=O)N[C@H](C(=O)N[C@@H](CC(N)=O)C(=O)N[C@H](C(=O)NCC(=O)N1CCC[C@H]1C(=O)N[C@@H](CC(N)=O)C(=O)N[C@H](C(=O)N[C@@H](Cc1ccc(O)cc1)C(N)=O)[C@@H](C)O)C(C)C)[C@@H](C)O
notes: Analogue of human amylin; also called compound 65
B3: N^ε1-[(4S)-4-carboxy-4-(19-carboxynonadecanoylamino)butanoyl]-[Arg14,Arg17,Pro21,Pro27,Pro31]-h-amylin (peptide)
peptide: K([γGlu-C20 diacid])CNTATCATQRLARFLRHSSPNFGAIPSSTPVGSNTY-NH2
modifications: disulfide 2-7; N-terminus assumed
SMILES: CC[C@H](C)[C@H](NC(=O)[C@H](C)NC(=O)CNC(=O)[C@H](Cc1ccccc1)NC(=O)[C@H](CC(N)=O)NC(=O)[C@@H]1CCCN1C(=O)[C@H](CO)NC(=O)[C@H](CO)NC(=O)[C@H](Cc1c[nH]cn1)NC(=O)[C@H](CCCNC(=N)N)NC(=O)[C@H](CC(C)C)NC(=O)[C@H](Cc1ccccc1)NC(=O)[C@H](CCCNC(=N)N)NC(=O)[C@H](C)NC(=O)[C@H](CC(C)C)NC(=O)[C@H](CCCNC(=N)N)NC(=O)[C@H](CCC(N)=O)NC(=O)[C@@H](NC(=O)[C@H](C)NC(=O)[C@@H]1CSSC[C@H](NC(=O)[C@@H](N)CCCCNC(=O)CC[C@H](NC(=O)CCCCCCCCCCCCCCCCCCC(=O)O)C(=O)O)C(=O)N[C@@H](CC(N)=O)C(=O)N[C@@H]([C@@H](C)O)C(=O)N[C@@H](C)C(=O)N[C@@H]([C@@H](C)O)C(=O)N1)[C@@H](C)O)C(=O)N1CCC[C@H]1C(=O)N[C@@H](CO)C(=O)N[C@@H](CO)C(=O)N[C@H](C(=O)N1CCC[C@H]1C(=O)N[C@H](C(=O)NCC(=O)N[C@@H](CO)C(=O)N[C@@H](CC(N)=O)C(=O)N[C@H](C(=O)N[C@@H](Cc1ccc(O)cc1)C(N)=O)[C@@H](C)O)C(C)C)[C@@H](C)O
notes: Analogue of human amylin; also called compound 63
B4: N^ε1-[2-[2-[2-[[(4S)-4-carboxy-4-(19-carboxynonadecanoylamino)butanoyl]amino]ethoxy]ethoxy]acetyl]-[Thr14,Arg17,Pro21,Pro27,Pro31]-h-amylin (peptide)
peptide: K([AEEA-γGlu-C20 diacid])CNTATCATQRLATFLRHSSPNFGAIPSSTPVGSNTY-NH2
modifications: disulfide 2-7; N-terminus assumed
SMILES: CC[C@H](C)[C@H](NC(=O)[C@H](C)NC(=O)CNC(=O)[C@H](Cc1ccccc1)NC(=O)[C@H](CC(N)=O)NC(=O)[C@@H]1CCCN1C(=O)[C@H](CO)NC(=O)[C@H](CO)NC(=O)[C@H](Cc1c[nH]cn1)NC(=O)[C@H](CCCNC(=N)N)NC(=O)[C@H](CC(C)C)NC(=O)[C@H](Cc1ccccc1)NC(=O)[C@@H](NC(=O)[C@H](C)NC(=O)[C@H](CC(C)C)NC(=O)[C@H](CCCNC(=N)N)NC(=O)[C@H](CCC(N)=O)NC(=O)[C@@H](NC(=O)[C@H](C)NC(=O)[C@@H]1CSSC[C@H](NC(=O)[C@@H](N)CCCCNC(=O)COCCOCCNC(=O)CC[C@H](NC(=O)CCCCCCCCCCCCCCCCCCC(=O)O)C(=O)O)C(=O)N[C@@H](CC(N)=O)C(=O)N[C@@H]([C@@H](C)O)C(=O)N[C@@H](C)C(=O)N[C@@H]([C@@H](C)O)C(=O)N1)[C@@H](C)O)[C@@H](C)O)C(=O)N1CCC[C@H]1C(=O)N[C@@H](CO)C(=O)N[C@@H](CO)C(=O)N[C@H](C(=O)N1CCC[C@H]1C(=O)N[C@H](C(=O)NCC(=O)N[C@@H](CO)C(=O)N[C@@H](CC(N)=O)C(=O)N[C@H](C(=O)N[C@@H](Cc1ccc(O)cc1)C(N)=O)[C@@H](C)O)C(C)C)[C@@H](C)O
notes: Analogue of human amylin; also called compound 75
B5: N^ε1-[(4S)-4-carboxy-4-(19-carboxynonadecanoylamino)butanoyl]-[Ala14,Arg17,Pro21,Pro27,His34]-h-amylin (peptide)
peptide: K([γGlu-C20 diacid])CNTATCATQRLAAFLRHSSPNFGAIPSSTNVGHNTY-NH2
modifications: disulfide 2-7; N-terminus assumed
SMILES: CC[C@H](C)[C@H](NC(=O)[C@H](C)NC(=O)CNC(=O)[C@H](Cc1ccccc1)NC(=O)[C@H](CC(N)=O)NC(=O)[C@@H]1CCCN1C(=O)[C@H](CO)NC(=O)[C@H](CO)NC(=O)[C@H](Cc1c[nH]cn1)NC(=O)[C@H](CCCNC(=N)N)NC(=O)[C@H](CC(C)C)NC(=O)[C@H](Cc1ccccc1)NC(=O)[C@H](C)NC(=O)[C@H](C)NC(=O)[C@H](CC(C)C)NC(=O)[C@H](CCCNC(=N)N)NC(=O)[C@H](CCC(N)=O)NC(=O)[C@@H](NC(=O)[C@H](C)NC(=O)[C@@H]1CSSC[C@H](NC(=O)[C@@H](N)CCCCNC(=O)CC[C@H](NC(=O)CCCCCCCCCCCCCCCCCCC(=O)O)C(=O)O)C(=O)N[C@@H](CC(N)=O)C(=O)N[C@@H]([C@@H](C)O)C(=O)N[C@@H](C)C(=O)N[C@@H]([C@@H](C)O)C(=O)N1)[C@@H](C)O)C(=O)N1CCC[C@H]1C(=O)N[C@@H](CO)C(=O)N[C@@H](CO)C(=O)N[C@H](C(=O)N[C@@H](CC(N)=O)C(=O)N[C@H](C(=O)NCC(=O)N[C@@H](Cc1c[nH]cn1)C(=O)N[C@@H](CC(N)=O)C(=O)N[C@H](C(=O)N[C@@H](Cc1ccc(O)cc1)C(N)=O)[C@@H](C)O)C(C)C)[C@@H](C)O
notes: Analogue of human amylin; also called compound 93

Molecular target: T1, rat calcitonin receptor
Assay: ratio of binding IC50s: rat calcitonin receptor / rat amylin receptor (reference)

Row | Ratio rCT/rAmylin binding | Binder
1 | 178 | B1
2 | 93.2 | B2
3 | 35.6 | B3
4 | 110 | B4
5 | 83.2 | B5

Molecular target: T2, human calcitonin receptor
Assay: ratio of binding IC50s: human calcitonin receptor / human amylin receptor (reference)
Outline: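 Competition binding by SPA with cell membranes (35 ng/μL) and SPA beads in 50 mM Hepes pH 7.4 with 1 mM CaCl2, 5 mM MgCl2, 0.1% OA and 0.02% Tween20. Incubated 120 min at 25 °C with shaking, then counted.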

Row | Ratio hCT/hAmylin binding | Binder
6 | 51.7 | B1
7 | 82.4 | B2
8 | 157 | B3
9 | 91.4 | B4
10 | 101 | B5

Molecular target: T1, rat calcitonin receptor
Assay: SPA competition vs 125I-calcitonin, membranes of BHK cells with rat calcitonin receptor (Assay VIII)

Row | IC50 [nM] | Binder
11 | 50.3 | B1
12 | 108 | B2
13 | 124 | B3
14 | 442 | B4
15 | 131 | B5

Molecular target: T3, rat amylin receptor (rat calcitonin …)
Assay: SPA competition vs 125I-rat amylin, membranes of BHK cells with rat calcitonin receptor + rat RAMP3 (Assay VI)

Row | IC50 [nM] | Binder
16 | 0.283 | B1
17 | 1.16 | B2
18 | 3.48 | B3
19 | 4.03 | B4
20 | 1.58 | B5
